# Measured values as given in the supplement of paper PMC10567573.
# B1: ZNF8 (parent)
# chain: RIHTGERPYMCKECGKAFSQNSSL
# B2: CD69 (parent)
# chain: FVAENSSLHPESGQENDATSPHFS
# Variants of: B1
# Test: protein stability index of a GFP-peptide fusion (GPS, HEK-293T) (PSI 1-6); higher = more stable
# Conditions: c terminus: a fixed tail appended
# 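Also: lentivirally expressed fusions sorted by FACS into six bins by GFP to DsRed ratio, PSI derived from sequencing read proportions per bin multiplied by bin number.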
row,Variant,protein stability index
1,T4F,2.42
2,T4Y,2.1
3,T4D,2.74
4,T4M,1.88
5,T4A,2.21
6,T4L,2.16
7,T4G,2.19
8,T4V,2.59
9,T4H,2.43
10,T4N,2.91
11,T4C,3.04
12,T4K,2.03
13,T4I,2.68
14,T4Q,3.24
15,T4P,3.3
16,T4E,3.16
17,T4S,2.81
18,T4W,1.89
19,T4R,2.04
20,R1A,2.93
21,R1P,3.17
22,R1D,2.71
23,R1S,3.19
24,R1W,2.27

row,Variant,protein stability index
1,R1Y,2.2
2,R1F,1.97
3,R1C,4.88
4,R1V,2.88
5,R1L,2.63
6,R1G,3.34
7,R1E,2.87
8,R1M,3.04
9,R1T,3.22
10,R1Q,2.75
11,R1I,2.77
12,R1H,3.56
13,R1N,2.85
14,R1K,3.01
15,G5V,2.04
16,G5L,2.01
17,G5S,2.53
18,G5I,1.83
19,G5E,3.37
20,G5F,2.09
21,G5N,2.44
22,G5P,3.02
23,G5D,2.64
24,G5R,2.13

row,Variant,protein stability index
1,G5H,2.63
2,G5M,2.62
3,G5K,2.5
4,G5Q,2.47
5,G5C,3.78
6,G5T,2.31
7,G5A,2.98
8,H3T,2.8
9,H3N,2.81
10,H3D,2.91
11,H3R,1.96
12,H3E,3.1
13,H3W,2.05
14,H3A,1.99
15,H3L,2.25
16,H3Q,2.47
17,H3C,3.28
18,H3S,2.38
19,H3P,2.38
20,H3K,2.46
21,H3M,2.49
22,H3V,2.05
23,H3G,3.12
24,H3I,2.74

row,Variant,protein stability index
1,H3F,1.9
2,H3Y,2.33
3,I2T,1.74
4,I2A,2.41
5,I2M,2.44
6,I2F,2.5
7,I2C,2.85
8,I2N,3.13
9,I2G,2.78
10,I2Q,3.57
11,I2R,2.94
12,I2E,2.87
13,I2V,2.29
14,I2L,2.35
15,I2K,2.51
16,I2D,2.43
17,I2H,2.38
18,I2S,2.75
19,I2P,3.72
20,I2W,2.33
21,I2Y,2.73

# Variants of: B2
# Test: as above
# Conditions: c terminus: a fixed tail appended
row,Variant,protein stability index
1,H22T,3.11
2,H22A,3.21
3,H22W,2.72
4,H22L,2.64
5,H22C,2.65
6,H22D,3.79
7,H22P,3.19
8,H22Q,3.76
9,H22K,3.24
10,H22Y,1.72
11,H22V,3.54
12,H22E,3.82
13,H22R,3.18
14,H22G,3.33
15,H22N,3.21
16,H22I,2.45
17,H22M,2.71
18,H22S,2.86
19,H22F,1.66
20,S24N,2.92
21,S24P,2.57
22,S24T,3.27
23,S24E,3.75
24,S24R,1.77
25,S24H,3.55

row,Variant,protein stability index
1,S24C,2.5
2,S24F,2.27
3,S24Y,2.38
4,S24K,2.91
5,S24A,3.55
6,S24V,2.77
7,S24G,3.13
8,S24L,3.04
9,S24Q,2.78
10,S24D,3.9
11,S24M,2.09
12,S24I,2.19
13,F23S,4.12
14,F23Y,3.09
15,F23N,3.8
16,F23A,3.55
17,F23V,3.59
18,F23W,2.02
19,F23M,3.56
20,F23E,4.17
21,F23G,3.58
22,F23H,3.56
23,F23I,3.46
24,F23Q,3.8
25,F23T,3.61

row,Variant,protein stability index
1,F23D,4.53
2,F23C,3.19
3,F23L,3.55
4,F23K,4.07
5,F23R,3.22
6,F23P,3.37
7,P21C,2.64
8,P21Q,3.15
9,P21Y,2.62
10,P21K,3.25
11,P21E,3.97
12,P21S,2.98
13,P21L,2.33
14,P21G,3.04
15,P21R,2.56
16,P21T,2.86
17,P21F,2.91
18,P21M,2.56
19,P21D,3.6
20,P21W,2.9
21,P21I,2.65
22,P21N,2.6
23,P21V,2.52
24,P21H,2.46
